In assay [1] the target is superfolder green fluorescent protein (sfGFP). Description: ITC. For orientation: Isothermal titration calorimetry measures the heat released or taken up as one component is titrated into another.
Assay [2] shares this target. Description: AUC.
Assay [3] shares this target. Description: MST.
Assay [4] shares this target. Nature of the assay: MST. The source holds these as a separate data set.

B1: anti-GFP nanobody (GFP-enhancer) (VHH)
VHH: QVQLVESGGALVQPGGSLRLSCAASGFPVNRYSMRWYRQAPGKEREWVAGMSSAGDRSSYEDSVKGRFTISRDDARNTVYLQMNSLKPEDTAVYYCNVNVGFEYWGQGTQVTVSS
Broadly, the Kd is the free concentration of one partner at which half of the binding sites on the other are occupied at equilibrium, for simple one-to-one binding. Read a low Kd as a tighter complex. Broadly, the stoichiometry N is a count of units in the complex or per binding partner. In the case of B1, the Kd in assay [1] came to 1 nM; in assay [2], 1.72 nM; in assay [3] it was 1.52 nM; in assay [4] it was 1.53 nM. The same molecule had a dH in assay [1] of -11.1 kcal/mol. The molecule further showed a stoichiometry N in assay [2] of 1.

For the origin of these results see paper PMC12131814.
